By stoichiometry N is commonly meant a count of units in the complex or per binding partner.

The target of the experiment is Porcine RNA polymerase II (porcine) (UniProt I3LGP4). Nature of the experiment: mass photometry; Pol II or Pol II-Gdown1 complex with GPN1-GPN3 and/or RPAP2 in a 1:2:2 molar ratio, 30 minutes at 4 °C; measured at 20 nM; 20 mM HEPES-NaOH pH 7.9, 100 mM NaCl, 2 mM MgCl2, 10 µM ZnCl2, 1 mM DTT.

Take “Porcine RNA polymerase II (from UniProt I3LGP4 127-1300; P60899 1-125; A0A4X1VYD0 1-67; A0A8D0JYF1 1-58) (complex)”: the stoichiometry N worked out at 2.

The values are drawn from paper PMC13486763.
